{
  "source": "patent US20040209344A1",
  "about": "“Crystal structure of angiotensin-converting enzyme-related carboxypeptidase” (priority 2002, published 2004)",
  "origin": "cited, not measured here",
  "key": {"[1]": {"biological_target": "T1, ACE2 (Homo sapiens, UniProt Q9BYF1)"}, "[2]": {"biological_target": "T1, ACE2", "design": "made in house; host or cells: SF9 insect cells, baculovirus (pBac Pak9 vector), secreted into the culture supernatant", "settings": "Tipnis et al."}, "[3]": {"biological_target": "somatic ACE D991 to E mutant (Homo sapiens, UniProt P12821, D1020E)", "sequence (P12821 30-1306 D1020E)": "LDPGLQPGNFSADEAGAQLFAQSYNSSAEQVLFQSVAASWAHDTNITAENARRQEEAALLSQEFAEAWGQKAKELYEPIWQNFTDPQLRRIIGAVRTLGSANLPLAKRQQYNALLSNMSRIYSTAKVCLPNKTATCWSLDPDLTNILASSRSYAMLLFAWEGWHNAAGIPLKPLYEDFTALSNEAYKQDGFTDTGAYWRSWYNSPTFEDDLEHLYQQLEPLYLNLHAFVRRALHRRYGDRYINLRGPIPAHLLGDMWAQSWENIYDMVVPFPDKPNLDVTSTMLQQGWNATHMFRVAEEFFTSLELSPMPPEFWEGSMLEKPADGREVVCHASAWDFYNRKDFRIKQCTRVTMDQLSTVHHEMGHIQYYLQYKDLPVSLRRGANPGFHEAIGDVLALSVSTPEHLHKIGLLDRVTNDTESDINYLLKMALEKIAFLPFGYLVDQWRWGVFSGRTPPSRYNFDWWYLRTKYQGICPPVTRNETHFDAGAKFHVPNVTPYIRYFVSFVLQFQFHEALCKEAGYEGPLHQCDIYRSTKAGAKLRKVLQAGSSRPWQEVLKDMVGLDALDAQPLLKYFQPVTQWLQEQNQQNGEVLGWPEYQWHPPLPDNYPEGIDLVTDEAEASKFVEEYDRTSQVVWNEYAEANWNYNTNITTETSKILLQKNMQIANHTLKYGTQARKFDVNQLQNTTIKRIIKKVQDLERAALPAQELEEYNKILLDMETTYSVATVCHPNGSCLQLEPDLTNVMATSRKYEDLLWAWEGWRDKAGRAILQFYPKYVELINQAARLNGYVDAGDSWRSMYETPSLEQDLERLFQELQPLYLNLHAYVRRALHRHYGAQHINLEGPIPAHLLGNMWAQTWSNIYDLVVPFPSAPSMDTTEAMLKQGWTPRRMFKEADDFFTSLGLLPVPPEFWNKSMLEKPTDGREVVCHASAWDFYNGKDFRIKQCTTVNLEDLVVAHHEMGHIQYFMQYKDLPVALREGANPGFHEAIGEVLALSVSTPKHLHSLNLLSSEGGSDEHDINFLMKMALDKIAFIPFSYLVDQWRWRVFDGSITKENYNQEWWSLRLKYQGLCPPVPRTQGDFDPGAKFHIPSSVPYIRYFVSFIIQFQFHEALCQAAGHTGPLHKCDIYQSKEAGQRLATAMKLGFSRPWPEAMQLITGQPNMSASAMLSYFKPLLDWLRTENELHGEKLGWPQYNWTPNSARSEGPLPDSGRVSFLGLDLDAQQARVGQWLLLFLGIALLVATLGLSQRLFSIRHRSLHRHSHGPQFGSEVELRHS", "settings": "mutation of D991 to E in somatic ACE; Williams et al."}},
  "note": "Entries after “also recorded” stand apart in the source; their conditions may differ. Read-outs that look alike come from different tables or passages of the source.",
  "data": [
    {"compound": "Leu-enkephalin: peptide YGGFL; SEQ ID NO: 8", "values": [
      {"measurement": "activity as peptide substrate for ACE2", "setting": "[1]; Vickers et al.", "value": "inactive"}
    ]},
    {"compound": "Met-enkephalin: peptide YGGFM; SEQ ID NO: 9", "values": [
      {"measurement": "activity as peptide substrate for ACE2", "setting": "[1]; Vickers et al.", "value": "inactive"}
    ]},
    {"compound": "C[C@H](CS)C(=O)N1CCC[C@H]1C(=O)O", "note": "[captopril]", "values": [
      {"measurement": "inhibition of ACE2 by ACE inhibitors", "setting": "[2]", "value": "did not inhibit; also recorded: not active"}
    ]},
    {"compound": "C[C@H](N[C@@H](CCc1ccccc1)C(=O)O)C(=O)N1[C@H](C(=O)O)C[C@H]2CCCC[C@@H]21", "note": "[trandolaprilat]", "values": [
      {"measurement": "decrease in affinity for the inhibitor", "setting": "[3]", "value": "about 8 fold"}
    ]},
    {"compound": "Angiotensin 1-9: peptide DRVYIHPFH; SEQ ID NO: 3", "values": [
      {"measurement": "activity as peptide substrate for ACE2", "setting": "[1]; Vickers et al.", "value": "inactive"}
    ]},
    {"compound": "des-Arg^9 bradykinin", "values": [
      {"measurement": "activity as peptide substrate for ACE2", "setting": "[1]; Vickers et al.", "value": "best in vitro peptide substrates"}
    ]},
    {"compound": "Apelin 13", "values": [
      {"measurement": "activity as peptide substrate for ACE2", "setting": "[1]", "value": "best in vitro peptide substrates"}
    ]},
    {"compound": "Dynorphin A 1-13", "values": [
      {"measurement": "activity as peptide substrate for ACE2", "setting": "[1]; Vickers et al.", "value": "best in vitro peptide substrates"}
    ]},
    {"compound": "Angiotensin 1-5: peptide DRVYI; SEQ ID NO: 10", "values": [
      {"measurement": "activity as peptide substrate for ACE2", "setting": "[1]; Vickers et al.", "value": "inactive"}
    ]},
    {"compound": "Angiotensin II: vasoconstrictor peptide DRVYIHPF; SEQ ID NO: 2", "values": [
      {"measurement": "activity as peptide substrate for ACE2", "setting": "[1]; Vickers et al.", "value": "best in vitro peptide substrates"}
    ]}
  ]
}
